Experimental data reported in PMC8533110.

Key:
Test in all cases: EMSA
Details in all cases: EMSA: 10 mM Tris-HCl pH 8.0, 60 mM NaCl, 10 mM KCl, 5 mM MgCl2, 1 mM DTT, 0.05% NP40, 10% glycerol, footprint: 5 mM Tris-HCl pH 8.0, 60 mM NaCl, 5 mM KCl
[1] = target: T1, HrcA (Campylobacter jejuni NCTC 11168) (UniProt Q9PPG2)
T1 sequence: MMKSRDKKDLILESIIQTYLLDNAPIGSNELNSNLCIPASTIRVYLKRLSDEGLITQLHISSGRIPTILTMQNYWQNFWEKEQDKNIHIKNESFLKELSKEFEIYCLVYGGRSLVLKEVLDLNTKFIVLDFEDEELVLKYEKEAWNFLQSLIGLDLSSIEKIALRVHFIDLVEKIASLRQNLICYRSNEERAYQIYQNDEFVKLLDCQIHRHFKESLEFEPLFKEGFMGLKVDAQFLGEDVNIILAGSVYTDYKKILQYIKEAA

[2] = target: T2, HrcA;HspR (Campylobacter jejuni NCTC 11168;Campylobacter jejuni NCTC 11168) (UniProt Q9PPG2+Q0P926)
T2 sequence 1: T1 sequence
T2 sequence 2: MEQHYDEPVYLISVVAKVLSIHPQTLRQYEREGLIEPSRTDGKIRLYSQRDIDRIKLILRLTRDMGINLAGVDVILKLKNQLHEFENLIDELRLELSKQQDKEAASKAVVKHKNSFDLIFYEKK

[3] = target: T3, HspR (Campylobacter jejuni NCTC 11168) (UniProt Q0P926)
T3 sequence: T2 sequence 2

Row | Sequence | binding [1] | binding [2] | binding [3]
1 | GGATCCGCACAACAACAAAAGCTACAATGCCATAAAAAATCTTTTTCATTTTTATCCTTTAGTTTATTTTATAAAATAACTTTAGTCTATAAAACTAAACTTTTATAAATATTTTAATTTAAAGTATTGACAAAATTCATTTTTTATAGTATGATATTATCACTCTAAATTAAAGAGTGCTAAAATCAATATTTTTAAGGATGGACAAAAATGAATTTTCAACCTTTAGGAAAGCGTGTTCTAGTTAAACGCGCTCGAG (double strand) [Pgro promoter probe (EMSA)] | binds | binds | binds
2 | GGATCCCTTGCAGCAAATAAAGCACTTGCTAAACTTAATGATAAAAAAATCTTTTTCATTTCATTTCCTTTTGTTCTTAAAGATAAATTATCTCGTAAAATATTTTACTGTCTTCATAGTATAAAACCGAAAATTTACAAAATTGTAAATAAAACCTTGAGTGATAAAAATTTATAAAACTTGATTGACTTAGGCTAAAGTTTATGTTATAATTTAATCCTCTATATAATCAAGTAAAAATTTTTAAGGAAATATAACATGAATAGTTTATACGAAACTCTTGGAGTTAGCCTCGAG (double strand) [Pcbp promoter probe (EMSA)] |  |  | binds
